{"source": "patent US20140335077A1", "about": "“Compositions and Methods for the Treatment of Cancer Using IGF-IR Antagonists and MAPK/ERK Inhibitors” (priority 2013, published 2014)", "molecules": {"B1": {"name": "CP-751,871: anti-IGF-1R antibody figitumumab (Pfizer), IGF-1R antagonist (antibody, chains of the INN, looked up)", "heavy": "EVQLLESGGGLVQPGGSLRLSCTASGFTFSSYAMNWVRQAPGKGLEWVSAISGSGGTTFYADSVKGRFTISRDNSRTTLYLQMNSLRAEDTAVYYCAKDLGWSDSYYYYYGMDVWGQGTTVTVSSASTKGPSVFPLAPCSRSTSESTAALGCLVKDYFPEPVTVSWNSGALTSGVHTFPAVLQSSGLYSLSSVVTVPSSNFGTQTYTCNVDHKPSNTKVDKTVERKCCVECPPCPAPPVAGPSVFLFPPKPKDTLMISRTPEVTCVVVDVSHEDPEVQFNWYVDGVEVHNAKTKPREEQFNSTFRVVSVLTVVHQDWLNGKEYKCKVSNKGLPAPIEKTISKTKGQPREPQVYTLPPSREEMTKNQVSLTCLVKGFYPSDIAVEWESNGQPENNYKTTPPMLDSDGSFFLYSKLTVDKSRWQQGNVFSCSVMHEALHNHYTQKSLSLSPG", "light": "DIQMTQFPSSLSASVGDRVTITCRASQGIRNDLGWYQQKPGKAPKRLIYAASRLHRGVPSRFSGSGSGTEFTLTISSLQPEDFATYYCLQHNSYPCSFGQGTKLEIKRTVAAPSVFIFPPSDEQLKSGTASVVCLLNNFYPREAKVQWKVDNALQSGNSQESVTEQDSKDSTYSLSSTLTLSKADYEKHKVYACEVTHQGLSSPVTKSFNRGEC"}}, "format_in_all_cases": "cell-based", "key": {"[1]": {"test_system": "BE", "assay": "PrestoBlue cell viability, anti-IGF-1R antibody with U0126, BE (melanoma)", "details": "48 h", "procedure": "(§1) Cells were incubated in 96 well tissue culture plates and cell viability was measured by PrestoBlue cell viability assay (Invitrogen, CA, USA) according to manufacturer's instructions. Fluorescence was measured with excitation at 560 nm and emission at 590 nm. Cell number was calculated from standard curves of fluorescence measurements from known numbers of cells. Triplicate cultures were performed on all experiments.\n(§2) The effects of anti-IGF-1R antibodies/MEK inhibitor combination treatment on viability of different types of tumor cells were investigated using PrestoBlue cell viability assay (Invitrogen, CA, USA) according to manufacturer's instructions. (Table 3).\n(§3) Cells were incubated in serum free medium for 12 h followed by pretreatment for 60 min without or with 0.5, 1, 3 or 5 μM of the ERK inhibitor U0126, and then treated without or with 100 ng/ml anti-IGF-1R antibodies (Figitumumab or αIR-3 (Calbiochem, US). Cells were incubated in 96 well tissue culture plates for 48 hours and cell viability was measured by PrestoBlue cell viability assay. Fluorescence was measured with excitation at 560 nm and emission at 590 nm. Cell number was calculated from standard curves of fluorescence measurements from known numbers of cells. Triplicate cultures were performed on all experiments. The inhibition induced by anti-IGF-1R antibodies treated cells was calculated as percentage of untreated cells."}, "[2]": {"test_system": "MCF7", "assay": "PrestoBlue cell viability, anti-IGF-1R antibody with U0126, MCF7 (breast carcinoma)", "details": "48 h", "procedure": "as §1, §2, §3"}, "[3]": {"target": "T1, IGF-1R/β-arr1 association (Homo sapiens, UniProt P08069)", "T1 construct": "endogenous in cells; host or cells: Ewing's sarcoma cell lines", "assay": "β-arrestin1 recruitment to IGF-1R in ES cell lines (immunoprecipitation, WB)", "details": "10 min stimulation; all ES cell lines", "procedure": "FIG. 2A-FIG. 2D. Mechanism of CP induced IGF-1R downregulation: β-arrestin1 recruitment and receptor ubiquitination. (A) Cells incubated in serum free medium for 12 h were treated with 0, 0.1 or 1 μg/ml CP for 24 h. Protein lysates were analyzed by WB for IGF-1R and GAPDH as a loading control. […] Protein lysates were analyzed by WB for IGF-1R and GAPDH as a loading control. Signals were quantified by densitometry, normalized to GAPDH and expressed as a percentage of the IGF-1R at 0 h. Data correspond to the mean±SEM from three independent experiments. […] IGF-1R was immunoprecipitated from lysates and analyzed by WB (IB) for ubiquitination (Ub) and IGF-1R as a loading control. Molecular weight markers in KDa are indicated to the left of the panels. (D) β-Arrestin1 (β-arr1) was immunoprecipitated from cell lysates prepared as for (C). Immunoprecipitated proteins were analyzed by WB for IGF-1R. The whole lysates were analyzed by WB for GAPDH as a loading control.\nCells were lysed with 500 μl lysis buffer (110 mM KOAc, 0.5% (v/v) Triton X-100, 100 mM NaCl, protease inhibitor cocktail tablet (Roche), buffering salts pH 7.4). 500 μg of protein was incubated with Dynabeads protein G (10 μl) (Invitrogen, CA, USA) and 1 μg antibody overnight at 4° C. on a rotator platform. […]\nThese trends were confirmed by densitometric quantification of multiple experiments (FIG. 2B, graphs). […]"}, "[4]": {"test_system": "SKMel28", "assay": "PrestoBlue cell viability, anti-IGF-1R antibody with U0126, SKMel28 (melanoma)", "details": "48 h", "procedure": "as §1, §2, §3"}, "[5]": {"test_system": "MIAPaCa2", "assay": "PrestoBlue cell viability, anti-IGF-1R antibody with U0126, MIAPaCa2 (pancreatic cancer)", "details": "48 h", "procedure": "as §1, §2, §3"}, "[6]": {"details": "U0126 0 μM (60 min pretreatment)"}, "[7]": {"details": "U0126 0.5 μM (60 min pretreatment)"}, "[8]": {"details": "U0126 1 μM (60 min pretreatment)"}, "[9]": {"details": "U0126 3 μM (60 min pretreatment)"}, "[10]": {"details": "U0126 5 μM (60 min pretreatment)"}}, "data": [{"molecule": "B1", "values": [{"measurement": "Percentage inhibition of antibody treated cells (100 ng/ml)", "setting": "[1]; [6]", "result": 22, "unit": "%"}, {"measurement": "Percentage inhibition of antibody treated cells (100 ng/ml)", "setting": "[1]; [7]", "result": 27, "unit": "%"}, {"measurement": "Percentage inhibition of antibody treated cells (100 ng/ml)", "setting": "[1]; [8]", "result": 32, "unit": "%"}, {"measurement": "Percentage inhibition of antibody treated cells (100 ng/ml)", "setting": "[1]; [9]", "result": 45, "unit": "%"}, {"measurement": "Percentage inhibition of antibody treated cells (100 ng/ml)", "setting": "[1]; [10]", "result": 55, "unit": "%"}, {"measurement": "Percentage inhibition of antibody treated cells (100 ng/ml)", "setting": "[2]; [6]", "result": 15, "unit": "%"}, {"measurement": "Percentage inhibition of antibody treated cells (100 ng/ml)", "setting": "[2]; [7]", "result": 18, "unit": "%"}, {"measurement": "Percentage inhibition of antibody treated cells (100 ng/ml)", "setting": "[2]; [8]", "result": 25, "unit": "%"}, {"measurement": "Percentage inhibition of antibody treated cells (100 ng/ml)", "setting": "[2]; [9]", "result": 18, "unit": "%"}, {"measurement": "Percentage inhibition of antibody treated cells (100 ng/ml)", "setting": "[2]; [10]", "result": 33, "unit": "%"}, {"measurement": "β-arr1 recruitment to the receptor compared with IGF-1", "setting": "[3]", "result": "much more potent than IGF-1 in recruiting β-arr1"}, {"measurement": "Percentage inhibition of antibody treated cells (100 ng/ml)", "setting": "[4]; [6]", "result": 5, "unit": "%"}, {"measurement": "Percentage inhibition of antibody treated cells (100 ng/ml)", "setting": "[4]; [7]", "result": 15, "unit": "%"}, {"measurement": "Percentage inhibition of antibody treated cells (100 ng/ml)", "setting": "[4]; [8]", "result": 17, "unit": "%"}, {"measurement": "Percentage inhibition of antibody treated cells (100 ng/ml)", "setting": "[4]; [9]", "result": 25, "unit": "%"}, {"measurement": "Percentage inhibition of antibody treated cells (100 ng/ml)", "setting": "[4]; [10]", "result": 29, "unit": "%"}, {"measurement": "Percentage inhibition of antibody treated cells (100 ng/ml)", "setting": "[5]; [6]", "result": 27, "unit": "%"}, {"measurement": "Percentage inhibition of antibody treated cells (100 ng/ml)", "setting": "[5]; [7]", "result": 35, "unit": "%"}, {"measurement": "Percentage inhibition of antibody treated cells (100 ng/ml)", "setting": "[5]; [8]", "result": 55, "unit": "%"}, {"measurement": "Percentage inhibition of antibody treated cells (100 ng/ml)", "setting": "[5]; [9]", "result": 78, "unit": "%"}, {"measurement": "Percentage inhibition of antibody treated cells (100 ng/ml)", "setting": "[5]; [10]", "result": 89, "unit": "%"}]}]}
